Results taken from the supplement of paper PMC10266784.

B1: library; numbered along this chain (parent)
chain: MAAAAAAAAEQQSSNGPVKKSMREKAVERRSVNKEHNSNFKAGYIPIDEDRLHKTGLRGRKGNLAICVIILLFILAVINLIITLVIWAVIRIGPNGCDSMEFHESGLLRFKQVSDMGVIHPLYKSTVGGRRNENLVITGNNQPIVFQQGTTKLSVENNKTSITSDIGMQFFDPRTQNILFSTDYETHEFHLPSGVKSLNVQKASTERITSNATSDLNIKVDGRAIVRGNEGVFIMGKTIEFHMGGNMELKAENSIILNGSVMVSTTRLPSSSSGDQLGSGDWVRYKLCMCADGTLFKVQVTSQNMGCQISDNPCGNTH

Variants of: B1
Test: SGCB cell-surface expression functional score (HA stain, bin4 vs bin1, normalised to synonymous) (log10 ratio); higher = more cell-surface SGCB (functional)
Procedure, shortened: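 Codon-saturation libraries of HA-tagged, YFP-fused human beta-sarcoglycan were lentivirally transduced at MOI <0.1 into HEK293 cells stably expressing alpha-, gamma- and delta-sarcoglycan. YFP-positive cells were sorted after 72 hours, grown 5–7 days, stained on ice with Alexa Fluor 647 anti-HA, fixed, sorted into four 5% intensity bins and amplicon-sequenced. The functional score is the log ratio of highest-bin to lowest-bin variant frequency, taken as the median over codons and duplicate transductions. Synonymous variants were scaled per section to mean 0, SD 0.5.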

SGCB cell-surface expression functional score (log10): each site, then its substitutions
N217: Q 0.77 | M 0.27 | S 0.54 | P -1.08 | E 0.9 | D 0.2 | G 0.5 | C -0.04 | K 0.3 | A 0.9 | H 0 | F 1.13 | R 0.7 | Y 0.59 | V 0.65 | W -1.28 | T 0.16 | I 0.1 | L 0.37
G231: F -0.12 | C -0.5 | Y 0.68 | E 0.17 | K -1.12 | Q -0.92 | T -0.29 | I -1.29 | V -1.02 | N -0.19 | H -0.09 | D -0.08 | W -1.9 | P -1.37 | R 0.27 | M -1.23 | A -0.01 | S -0.88 | L -0.37
G228: N -0.63 | Q -1.35 | F -0.64 | W -1.51 | D -1.5 | P -1.47 | T -0.37 | H -1.79 | C 0.31 | K -1.33 | S 0.43 | M -0.15 | A 0.3 | Y -2.12 | I -1.44 | R -0.47 | E -0.84 | L -1.15 | V -1.04
G222: K 0.81 | H 1.21 | P -1.42 | V -0.07 | I -0.41 | A 0.63 | D -0.04 | E 0.65 | W 0.49 | C 0.58 | Y 0.21 | S 0.06 | M 0.55 | F 0.36 | L 0.26 | T 0.6 | R -0.06 | N 1.22 | Q 0.85
V226: R -1.54 | G -0.26 | S 0.01 | A 0.3 | W -1.37 | E 0.47 | T 0.44 | I 0.04 | F 0.29 | Y -0.87 | Q -0.68 | N -0.64 | D -1.82 | H -1.36 | P -0.81 | K -1.06 | L 0.56 | M 0.21 | C 0.33
I218: A -0.08 | K -1.78 | G -1.15 | H -2.33 | Y -1.39 | Q -2.02 | S -1.26 | M 0.26 | E -1.24 | V 0.46 | D -1.45 | T -0.49 | P -0.63 | C -0.48 | F 0.87 | N -1.03 | L 0.56 | W -0.149 | R -1.49
R227: P -1.23 | K 1.05 | N -0.13 | Q 0.55 | V 0.81 | S 0.71 | H 0.55 | E 1.04 | W 0.59 | A 0.72 | Y 0.15 | M 1.08 | D 0.42 | T 0.88 | C 0.03 | I -0.01 | G 0.48 | L 0.68 | F -0.49
I225: V 0.48 | H 0.53 | C 0.31 | A 0.41 | W 0.02 | G 0.01 | E 1.24 | M 0.37 | D 0.7 | N 0.09 | T 0.51 | P -1.25 | K 0.58 | L 0.83 | S 0.63 | Y 1.24 | R 0.53 | F 0.71 | Q 0.49
A224: H -0.71 | G -0.16 | K -2.05 | F 0.35 | C 0.31 | Q -0.44 | T 0.39 | E -1.01 | W -1.5 | R -1.54 | V 0.53 | S 0.3 | N -0.26 | M 0.59 | P -1.81 | Y -0.45 | L 1.04 | D -0.97 | I 1
V220: S 0.45 | C 0.09 | R -1.12 | I 0.43 | T 0.63 | Q -0.31 | M 0.77 | Y -0.43 | D -0.38 | L 0.84 | H 0.43 | E -0.86 | A 0.7 | W -1.67 | N 0.09 | P 0.3 | K -0.09 | G 0.34 | F -0.09
E230: I 0.14 | K 0.42 | S 0.75 | A 0.38 | F 1.05 | D 0.26 | Y 0.86 | M 0.53 | Q 0.32 | V 0.49 | W 0.47 | C 1.05 | G 0.43 | P -0.01 | L 0.63 | H 0.9 | R 0.28 | N 0.82 | T 1.29
D221: P 0.1 | I 0.45 | Q 0.74 | C -0.33 | K 0.13 | S 0.59 | G 0.35 | V 0.59 | L 0.62 | T 0.96 | F 1 | Y 0.42 | M 0.53 | R 0.19 | E 0.01 | N -0.22 | A 0.18 | H 0.75 | W 0.8
L216: R -1.93 | H -2.1 | Q -0.15 | P -1.25 | N -1.72 | E -1.92 | T -1.02 | Y -1.59 | V -2.64 | K -0.59 | M 0.99 | I -0.71 | W -0.99 | F -0.42 | A -1.97 | C -2.34 | S -1.57 | D -2.69 | G -1.5
K219: L 0.3 | E -0.03 | T 0.6 | D 0.29 | A 0.76 | R 0.05 | Y -0.13 | P -0.21 | C 0.59 | G -0.33 | F 0.64 | V -0.18 | S 0.32 | I 0.23 | W -0.31 | Q 0.3 | H 0.53 | M 0.67 | N -0.17
R223: P 0.58 | K 0.86 | H 0.2 | D 0.48 | W 0 | E 0.43 | T 0.4 | L 0.34 | C 0.4 | Y 0.77 | Q 0.48 | N 0.66 | G 0.12 | V -0.13 | S 0.18 | F -0.62 | A 0.72 | M 0.82 | I 0.02
D215: Q -1.03 | N 0.41 | L -1.51 | V -0.56 | T -0.88 | G -0.26 | C -1.31 | S -0.25 | A -0.72 | Y -0.46 | M -1 | K 0 | F -1.47 | I -0.99 | H -0.39 | P -0.55 | R -0.63 | E 0.16
N229: M 1.28 | K 0.95 | W 0 | S 0.94 | A 0.8 | R 0.82 | G 0.8 | T 0.29 | I 0.92 | E 0.51 | P 0.68 | D 0.08 | Y -0.25 | L 0.33 | H 1.03 | C 0.72 | V 0.87 | Q 0.93 | F 1.19
V232: K -1.43 | L 0.35 | M 0.68 | H 0.69 | C 0.7 | N -1.99 | D -1.72 | I 0.47 | E -1.63 | A -0.53 | G -0.27 | F 0.02
